For orientation: koff means a measure of how fast the partners let go of each other. A low value points to slow dissociation.

The target of the assay is VHH2-Fc antibody (VHH C2 fused to the Fc of human IgG1) (llama (Lama glama)). Nature of the assay: SPR; Biacore 3000; […] (10 mM acetate pH 3.5); […].
Chain of VHH2-Fc antibody (VHH C2 fused to the Fc of human IgG1) (llama (Lama glama)) (heavy, as listed by the source): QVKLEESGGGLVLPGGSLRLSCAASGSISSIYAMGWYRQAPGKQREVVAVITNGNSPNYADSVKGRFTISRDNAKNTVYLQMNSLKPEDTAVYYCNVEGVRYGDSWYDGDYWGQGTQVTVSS

“α-cobratoxin (from UniProt P01391 1-71) (natural protein)” gave a koff of 5e-05 s⁻¹.

Values taken from article PMC3718736.
